Assay results taken from publication PMC8284805, “Mechanism underlying the DNA-binding preferences of the Vibrio cholerae and vibriophage VP882 VqmA quorum-sensing receptors”.

Experiments:
[1] = test system: GST-DBDPhage (Vibriophage VP882); assay: EMSA; details: EMSA: 25 nM DNA, 18.75-600 nM protein (dimer), 6% DNA retardation gel, SYBR Green; buffer, pH and temperature not given (cited protocol); EC50 values only in …
[2] = molecular target: GST-DBDPhage (GST fused to the N-terminus of the VqmAPhage DNA-binding domain) (not stated | vibriophage VP882); assay: SEC; gel filtration of the purified proteins, UV280 traces (S3D Fig)
[3] = molecular target: GST-DBDVc (GST fused to the N-terminus of the VqmAVc DNA-binding domain) (not stated | Vibrio cholerae); assay: as above
VqmAVc = VqmAVc (Vibrio cholerae, UniProt A0A0F0AZW0 1-246); assay: EMSA; EMSA: 25 nM DNA, 18.75-600 nM protein (dimer), 6% DNA retardation gel, SYBR Green; buffer, pH and temperature not given (cited protocol); EC50 values only in S2A Fig; details: protein: recombinant; chain copies: 2; blunt
VqmAPhage [4] = molecular target: T1, VqmAPhage (Vibriophage VP882, UniProt A2I306 1-235); assay: EMSA; half as strong as PvqmR*; EMSA: 25 nM DNA, 18.75-600 nM protein (dimer), 6% DNA retardation gel, SYBR Green; buffer, pH and temperature not given (cited protocol); EC50 values only in S2A Fig; details: protein: recombinant; chain copies: 2; blunt
T1 sequence: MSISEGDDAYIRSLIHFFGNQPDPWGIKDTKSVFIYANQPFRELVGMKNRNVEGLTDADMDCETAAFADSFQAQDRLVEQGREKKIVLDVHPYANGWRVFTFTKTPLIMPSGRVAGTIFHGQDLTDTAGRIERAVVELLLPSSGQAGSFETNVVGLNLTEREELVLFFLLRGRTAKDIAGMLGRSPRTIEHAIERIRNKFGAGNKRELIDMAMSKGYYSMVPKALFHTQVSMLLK

VqmAPhage [5] = molecular target: T1, VqmAPhage; assay: EMSA; EMSA: 25 nM DNA, 18.75-600 nM protein (dimer), 6% DNA retardation gel, SYBR Green; buffer, pH and temperature not given (cited protocol); EC50 values only in S2A Fig; details: protein: recombinant; chain copies: 2; blunt

For “GAATACACTCCTTGTAAGTGATTGTTATAAGGAGCTTTATTCTTGATGCATATAAGAAATACCGATAGGGGGAAAAATACCCTGATAAGCAGCTGCTAAAATTGATAAATGTCAATAAGCGAAGGGGATGATGC (double strand) [Pqtip]”, the binding signal (fold stronger than PvqmR) [1] was 5.

Molecule “GST-DBDPhage (GST fused to the N-terminus of the VqmAPhage DNA-binding domain)” has a stoichiometry N [2] of 2.

“GST-DBDVc (GST fused to the N-terminus of the VqmAVc DNA-binding domain)” gave a stoichiometry N [3] of 2.

B1: Pqtip* (dsDNA)
DNA 1: GTGATTGTTATAAGGAGCTTTATTCTTGATGCATATAAGAAATACCGATAGGGGGATTTCCCCCCTGATAAGCAGCTGCTAAAATTGATAAATGTCAATA
DNA 2: TATTGACATTTATCAATTTTAGCAGCTGCTTATCAGGGGGGAAATCCCCCTATCGGTATTTCTTATATGCATCAAGAATAAAGCTCCTTATAACAATCAC
B1: binds (VqmAVc); binds (VqmAPhage [4]).

B2: PvqmR* (dsDNA)
DNA 1: TCCGAGTATTGCGCGAGCTGTAATGTTGACTCAAACAATTATGCATAAAGGGGGGAAAAATACCCTTTTTCATTTGTACCGCGTTCGGTAAAGTACAAAC
DNA 2: GTTTGTACTTTACCGAACGCGGTACAAATGAAAAAGGGTATTTTTCCCCCCTTTATGCATAATTGTTTGAGTCAACATTACAGCTCGCGCAATACTCGGA
With B2 the binding signal (VqmAPhage [5]) was ~2 fold stronger than Pqtip*.
